Positions count from the first letter of the chain named.
B1: 3000-A04 (other)
VH: EVQLLESGGGLVQPGGSLRLSCAASGFTFSSYWMHWVRQAPGKGLEWVALISAGGTSKYYADSVKGRFTISRDNSKNTLYLQMNSLRAEDTAVYYCAKDNEKNLYTWLDYWGQGTLVTVSS
light: QPVLHQPPAMSSALGTTIRLTCTLRNDHDIGVYSVYWYQQRPGHPPRFLLRYFSQSDKSQGPQVPPRFSGSKDVARNRGYLSISELQPEDEAMYYCAMGARSSVTHVFGSGTQLTVLSQPKATPSVTLFPPSSEELQANKATLVCLMNDFYPGILTVTWKADGTPITQGVEMTTPSKQSNNKYAASSYLSLTPEQWRSRRSYSCQVMHEGSTVEKTVAPAECS
notes: copies: 1 + 1
B2: 3000-D07 (other)
VH: B1 VH with A49S, G54S, T56S, S57I
light: B1 light
notes: copies: 1 + 1
B3: 3000-B03 (other)
VH: B1 VH with S31N, A53N, G54N, S57Y, K58T
light: B1 light
notes: copies: 1 + 1
B4: 3000-H03 (other)
VH: B1 VH with S31D, A49S, A53N, T56G, S57Y, K58T
surrogate light: B1 light
B5: 3000-B06 (other)
VH: B1 VH with A53N, G54N, T56A, S57Y, K58I
light: B1 light
B6: 3000-E07 (other)
VH: B1 VH with S31N, A53G, T56G, S57N, K58I
light: B1 light
notes: copies: 1 + 1
B7: 3000-E01 (other)
VH: B1 VH with A53N, G54N, T56A, S57Y, K58T
surrogate light: B1 light
B8: 3000-F09 (other)
VH: B1 VH with A53S, G54S, T56G, S57I, K58T
surrogate light: B1 light
B9: 3000-C03 (other)
VH: B1 VH with A53N, G54N, S57Y
light: B1 light
notes: copies: 1 + 1
B10: 3000-A07 (other)
VH: B1 VH with S31D, L50V, A53G, T56A, S57Y
surrogate light: B1 light
B11: 3000-A11 (other)
VH: B1 VH with A53W, T56G, S57T
light: B1 light
notes: copies: 1 + 1
B12: 3000-E04 (other)
VH: B1 VH with S31D, L50V, A53W, T56A, S57Y
surrogate light: B1 light
B13: 3000-A05 (other)
VH: B1 VH with S31D, S57Y
light: B1 light
B14: 3000-B09 (other)
VH: B1 VH with S31D, A53S, T56G, S57Y
light: B1 light
B15: 3000-A08 (other)
VH: B1 VH with H35N, A53N, T56G, S57I
light: B1 light
B16: 3000-G09 (other)
VH: B1 VH with A53N, T56G, S57Y
light: B1 light
notes: copies: 1 + 1
B17: 3000-C07 (other)
VH: B1 VH with H35S, A53N, T56S, S57I
surrogate light: B1 light
B18: 3000-B02 (other)
VH: B1 VH with L50V, A53S, T56N, S57Y, K58I
surrogate light: B1 light

Each binder was assayed against T1, human ErbB3-Fc (R&D Systems) (human, UniProt P21860 20-643) (assay: ELISA on ErbB3-Fc, soluble monovalent Sab (Example 42)).
T1 construct: Bought protein; also called wild-type ErbB3-Fc fusion; immobilized ErbB3; not shown: Fc part of the bought fusion protein; not described

Binder	EC50 [pM]
B1	127
B2	152
B3	179
B4	109
B5	84
B6	121
B7	105
B8	118
B9	164
B10	87
B11	139
B12	109
B13	82
B14	70
B15	72
B16	158
B17	102
B18	115
